According to patent US20130052191A1 (Sanofi, published 2013):

Legend:
[1] = molecular target: α2β1 integrin (VLA-2) on HT1080 cells (UniProt P17301 30-1181; P05556 21-798); assay: cell-based or functional assay
[2] = molecular target: complement component C1q (in baby rabbit complement) (rabbit); assay: cell-based or functional assay

α2β1 integrin (VLA-2) on HT1080 cells, sequence (P17301 30-1181, chain 1 of 2): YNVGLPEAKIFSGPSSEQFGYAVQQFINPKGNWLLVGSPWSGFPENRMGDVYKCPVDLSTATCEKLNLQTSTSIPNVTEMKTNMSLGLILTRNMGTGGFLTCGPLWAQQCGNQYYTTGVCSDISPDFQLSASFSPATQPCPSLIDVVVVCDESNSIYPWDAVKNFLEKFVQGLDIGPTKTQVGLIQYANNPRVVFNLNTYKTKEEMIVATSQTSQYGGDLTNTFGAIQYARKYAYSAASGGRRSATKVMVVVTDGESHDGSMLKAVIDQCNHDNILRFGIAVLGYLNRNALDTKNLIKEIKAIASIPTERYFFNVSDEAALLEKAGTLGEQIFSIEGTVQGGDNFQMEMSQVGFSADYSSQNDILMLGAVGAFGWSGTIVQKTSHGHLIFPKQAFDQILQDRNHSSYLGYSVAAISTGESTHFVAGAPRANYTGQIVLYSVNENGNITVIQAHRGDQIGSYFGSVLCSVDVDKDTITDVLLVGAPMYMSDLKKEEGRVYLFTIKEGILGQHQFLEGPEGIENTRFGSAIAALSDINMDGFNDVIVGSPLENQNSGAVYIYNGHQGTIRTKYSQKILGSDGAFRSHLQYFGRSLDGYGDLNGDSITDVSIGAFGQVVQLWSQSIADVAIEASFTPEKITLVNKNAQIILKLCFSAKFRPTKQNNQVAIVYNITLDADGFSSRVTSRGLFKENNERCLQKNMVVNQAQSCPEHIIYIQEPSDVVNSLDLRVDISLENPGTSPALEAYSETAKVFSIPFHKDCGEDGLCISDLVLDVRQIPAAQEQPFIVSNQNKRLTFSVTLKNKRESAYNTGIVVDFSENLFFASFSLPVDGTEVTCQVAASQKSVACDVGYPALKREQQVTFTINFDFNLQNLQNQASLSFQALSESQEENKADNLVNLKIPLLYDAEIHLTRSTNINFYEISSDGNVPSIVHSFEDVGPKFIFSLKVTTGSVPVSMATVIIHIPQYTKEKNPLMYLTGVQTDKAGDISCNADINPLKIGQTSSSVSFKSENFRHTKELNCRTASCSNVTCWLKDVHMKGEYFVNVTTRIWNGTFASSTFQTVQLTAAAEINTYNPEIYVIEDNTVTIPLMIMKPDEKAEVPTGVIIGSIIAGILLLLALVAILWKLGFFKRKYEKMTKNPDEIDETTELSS
α2β1 integrin (VLA-2) on HT1080 cells, sequence (P05556 21-798, chain 2 of 2): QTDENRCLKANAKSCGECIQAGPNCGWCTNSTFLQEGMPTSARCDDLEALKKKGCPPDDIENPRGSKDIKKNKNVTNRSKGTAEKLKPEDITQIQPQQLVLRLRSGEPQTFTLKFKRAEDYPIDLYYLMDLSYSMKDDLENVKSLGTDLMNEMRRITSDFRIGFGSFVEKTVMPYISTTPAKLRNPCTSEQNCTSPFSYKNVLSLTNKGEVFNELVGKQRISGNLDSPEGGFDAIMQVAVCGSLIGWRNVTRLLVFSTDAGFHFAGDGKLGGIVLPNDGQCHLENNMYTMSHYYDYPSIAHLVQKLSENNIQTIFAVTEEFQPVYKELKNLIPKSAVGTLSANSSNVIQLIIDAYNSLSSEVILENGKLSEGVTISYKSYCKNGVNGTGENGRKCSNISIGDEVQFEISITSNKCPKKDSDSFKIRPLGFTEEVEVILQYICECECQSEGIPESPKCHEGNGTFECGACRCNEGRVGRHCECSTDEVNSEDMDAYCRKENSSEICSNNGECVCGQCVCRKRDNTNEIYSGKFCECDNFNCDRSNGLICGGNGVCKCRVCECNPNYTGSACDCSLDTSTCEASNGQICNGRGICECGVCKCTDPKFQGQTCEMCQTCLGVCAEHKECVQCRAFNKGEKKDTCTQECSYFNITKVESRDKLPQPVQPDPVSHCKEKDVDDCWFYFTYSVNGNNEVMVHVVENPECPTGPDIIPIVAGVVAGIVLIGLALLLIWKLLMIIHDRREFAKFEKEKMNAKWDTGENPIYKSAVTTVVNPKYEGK

Row | ADCC fold increase (LDH release, HT1080 target cells with human PBMC, antibody 0.1 µg/ml) [1] | CDC fold increase (LDH release, HT1080 cells, baby rabbit complement, antibody 1 µg/ml) [2] | CDC fold increase over the parental anti-VLA-2 IgG4 antibody (LDH release, HT1080 cells, baby rabbit complement, antibody 1 µg/ml) [2] | Binder
1 | 2 fold | ≥ 6.6 fold | – | anti-VLA-2 IgG1-S298A/S324N (antibody) heavy: not shown light: DFVMTQSPAFLSVTPGEKVTITCSAQSSVNYIHWYQQKPDQAPKKLIYDTSKLASGVPSRFSGSGSGTDYTFTISSLEAEDAATYYCQQWTTNPLTFGQGTKVEIKRTVAAPSVFIFPPSDEQLKSGTASVVCLLNNFYPREAKVQWKVDNALQSGNSQESVTEQDSKDSTYSLSSTLTLSKADYEKHKVYACEVTHQGLSSPVTKSFNRGEC
2 | – | ≥ 8.6 fold | – | anti-VLA-2 IgG-3133 (antibody) heavy: QVQLQESGPGLVKPSETLSLTCTVSGFSLTNYGIHWIRQPPGKGLEWLGVIWARGFTNYNSALMSRLTISKDNSKNQVSLKLSSVTAADTAVYYCARANDGVYYAMDYWGQGTLVTVSSASTKGPSVFPLAPCSRSTSGGTAALGCLVKDYFPEPVTVSWNSGALTSGVHTFPAVLQSSGLYSLSSVVTVPSSSLGTQTYTCNVNHKPSNTKVDKRVEPKSCDKTHTCPPCPAPELLGGPSVFLFPPKPKDTLMISRTPEVTCVVVDVSHEDPEVQFKWYVDGVEVHNAKTKPREEQYNSTFRVVSVLTVLHQDWLNGKEYKCKVSNKALPAPIEKTISKTKGQPREPQVYTLPPSREEMTKNQVSLTCLVKGFYPSDIAVEWESSGQPENNYNTTPPMLDSDGSFFLYSKLTVDKSRWQQGNIFSCSVMHEALHNRFTQKSLSLSPGK light: DFVMTQSPAFLSVTPGEKVTITCSAQSSVNYIHWYQQKPDQAPKKLIYDTSKLASGVPSRFSGSGSGTDYTFTISSLEAEDAATYYCQQWTTNPLTFGQGTKVEIKRTVAAPSVFIFPPSDEQLKSGTASVVCLLNNFYPREAKVQWKVDNALQSGNSQESVTEQDSKDSTYSLSSTLTLSKADYEKHKVYACEVTHQGLSSPVTKSFNRGEC
3 | 1.7 fold | – | – | anti-VLA-2 IgG1 (antibody) heavy: not shown light: DFVMTQSPAFLSVTPGEKVTITCSAQSSVNYIHWYQQKPDQAPKKLIYDTSKLASGVPSRFSGSGSGTDYTFTISSLEAEDAATYYCQQWTTNPLTFGQGTKVEIKRTVAAPSVFIFPPSDEQLKSGTASVVCLLNNFYPREAKVQWKVDNALQSGNSQESVTEQDSKDSTYSLSSTLTLSKADYEKHKVYACEVTHQGLSSPVTKSFNRGEC
4 | – | ≥ 6.4 fold | – | anti-VLA-2 IgG1-S324N (antibody) heavy: not shown light: DFVMTQSPAFLSVTPGEKVTITCSAQSSVNYIHWYQQKPDQAPKKLIYDTSKLASGVPSRFSGSGSGTDYTFTISSLEAEDAATYYCQQWTTNPLTFGQGTKVEIKRTVAAPSVFIFPPSDEQLKSGTASVVCLLNNFYPREAKVQWKVDNALQSGNSQESVTEQDSKDSTYSLSSTLTLSKADYEKHKVYACEVTHQGLSSPVTKSFNRGEC
5 | 1.8 fold | – | – | anti-VLA-2 IgG1-S298A (antibody) heavy: not shown light: DFVMTQSPAFLSVTPGEKVTITCSAQSSVNYIHWYQQKPDQAPKKLIYDTSKLASGVPSRFSGSGSGTDYTFTISSLEAEDAATYYCQQWTTNPLTFGQGTKVEIKRTVAAPSVFIFPPSDEQLKSGTASVVCLLNNFYPREAKVQWKVDNALQSGNSQESVTEQDSKDSTYSLSSTLTLSKADYEKHKVYACEVTHQGLSSPVTKSFNRGEC
6 | – | ≥ 5.6 fold | – | anti-VLA-2 IgG-1133 (antibody) heavy: QVQLQESGPGLVKPSETLSLTCTVSGFSLTNYGIHWIRQPPGKGLEWLGVIWARGFTNYNSALMSRLTISKDNSKNQVSLKLSSVTAADTAVYYCARANDGVYYAMDYWGQGTLVTVSSASTKGPSVFPLAPSSKSTSGGTAALGCLVKDYFPEPVTVSWNSGALTSGVHTFPAVLQSSGLYSLSSVVTVPSSSLGTQTYICNVNHKPSNTKVDKKVEPKSCDKTHTCPPCPAPELLGGPSVFLFPPKPKDTLMISRTPEVTCVVVDVSHEDPEVQFKWYVDGVEVHNAKTKPREEQYNSTFRVVSVLTVLHQDWLNGKEYKCKVSNKALPAPIEKTISKTKGQPREPQVYTLPPSREEMTKNQVSLTCLVKGFYPSDIAVEWESSGQPENNYNTTPPMLDSDGSFFLYSKLTVDKSRWQQGNIFSCSVMHEALHNRFTQKSLSLSPGK light: DFVMTQSPAFLSVTPGEKVTITCSAQSSVNYIHWYQQKPDQAPKKLIYDTSKLASGVPSRFSGSGSGTDYTFTISSLEAEDAATYYCQQWTTNPLTFGQGTKVEIKRTVAAPSVFIFPPSDEQLKSGTASVVCLLNNFYPREAKVQWKVDNALQSGNSQESVTEQDSKDSTYSLSSTLTLSKADYEKHKVYACEVTHQGLSSPVTKSFNRGEC
7 | 1.7 fold | ≥ 9 fold | – | anti-VLA-2 IgG1-E269D/S298A/S324N (antibody) heavy: QVQLQESGPGLVKPSETLSLTCTVSGFSLTNYGIHWIRQPPGKGLEWLGVIWARGFTNYNSALMSRLTISKDNSKNQVSLKLSSVTAADTAVYYCARANDGVYYAMDYWGQGTLVTVSSASTKGPSVFPLAPSSKSTSGGTAALGCLVKDYFPEPVTVSWNSGALTSGVHTFPAVLQSSGLYSLSSVVTVPSSSLGTQTYICNVNHKPSNTKVDKKVEPKSCDKTHTCPPCPAPELLGGPSVFLFPPKPKDTLMISRTPEVTCVVVDVSHDDPEVKFNWYVDGVEVHNAKTKPREEQYNATYRVVSVLTVLHQDWLNGKEYKCKVNNKALPAPIEKTISKAKGQPREPQVYTLPPSRDELTKNQVSLTCLVKGFYPSDIAVEWESNGQPENNYKTTPPVLDSDGSFFLYSKLTVDKSRWQQGNVFSCSVMHEALHNHYTQKSLSLSPGK light: DFVMTQSPAFLSVTPGEKVTITCSAQSSVNYIHWYQQKPDQAPKKLIYDTSKLASGVPSRFSGSGSGTDYTFTISSLEAEDAATYYCQQWTTNPLTFGQGTKVEIKRTVAAPSVFIFPPSDEQLKSGTASVVCLLNNFYPREAKVQWKVDNALQSGNSQESVTEQDSKDSTYSLSSTLTLSKADYEKHKVYACEVTHQGLSSPVTKSFNRGEC
8 | 1.5 fold | – | – | anti-VLA-2 IgG1-E269D (antibody) heavy: not shown light: DFVMTQSPAFLSVTPGEKVTITCSAQSSVNYIHWYQQKPDQAPKKLIYDTSKLASGVPSRFSGSGSGTDYTFTISSLEAEDAATYYCQQWTTNPLTFGQGTKVEIKRTVAAPSVFIFPPSDEQLKSGTASVVCLLNNFYPREAKVQWKVDNALQSGNSQESVTEQDSKDSTYSLSSTLTLSKADYEKHKVYACEVTHQGLSSPVTKSFNRGEC
9 | – | – | ≥ 9.6 fold | anti-VLA-2 IgG3 (antibody) heavy: QVQLQESGPGLVKPSETLSLTCTVSGFSLTNYGIHWIRQPPGKGLEWLGVIWARGFTNYNSALMSRLTISKDNSKNQVSLKLSSVTAADTAVYYCARANDGVYYAMDYWGQGTLVTVSSASTKGPSVFPLAPCSRSTSGGTAALGCLVKDYFPEPVTVSWNSGALTSGVHTFPAVLQSSGLYSLSSVVTVPSSSLGTQTYTCNVNHKPSNTKVDKRVELKTPLGDTTHTCPRCPEPKSCDTPPPCPRCPEPKSCDTPPPCPRCPEPKSCDTPPPCPRCPAPELLGGPSVFLFPPKPKDTLMISRTPEVTCVVVDVSHEDPEVQFKWYVDGVEVHNAKTKPREEQYNSTFRVVSVLTVLHQDWLNGKEYKCKVSNKALPAPIEKTISKTKGQPREPQVYTLPPSREEMTKNQVSLTCLVKGFYPSDIAVEWESSGQPENNYNTTPPMLDSDGSFFLYSKLTVDKSRWQQGNIFSCSVMHEALHNRFTQKSLSLSPGK light: DFVMTQSPAFLSVTPGEKVTITCSAQSSVNYIHWYQQKPDQAPKKLIYDTSKLASGVPSRFSGSGSGTDYTFTISSLEAEDAATYYCQQWTTNPLTFGQGTKVEIKRTVAAPSVFIFPPSDEQLKSGTASVVCLLNNFYPREAKVQWKVDNALQSGNSQESVTEQDSKDSTYSLSSTLTLSKADYEKHKVYACEVTHQGLSSPVTKSFNRGEC
